Assay results as given in IntAct's records for PubMed 12458226.

Legend:
[1] = biological target: grip2_rat Grip2 (UniProt Q9WTW1)
[2] = biological target: grip1_mouse Grip1 (UniProt Q925T6)
Chain of grip1_mouse Grip1 (Q925T6 whole entry): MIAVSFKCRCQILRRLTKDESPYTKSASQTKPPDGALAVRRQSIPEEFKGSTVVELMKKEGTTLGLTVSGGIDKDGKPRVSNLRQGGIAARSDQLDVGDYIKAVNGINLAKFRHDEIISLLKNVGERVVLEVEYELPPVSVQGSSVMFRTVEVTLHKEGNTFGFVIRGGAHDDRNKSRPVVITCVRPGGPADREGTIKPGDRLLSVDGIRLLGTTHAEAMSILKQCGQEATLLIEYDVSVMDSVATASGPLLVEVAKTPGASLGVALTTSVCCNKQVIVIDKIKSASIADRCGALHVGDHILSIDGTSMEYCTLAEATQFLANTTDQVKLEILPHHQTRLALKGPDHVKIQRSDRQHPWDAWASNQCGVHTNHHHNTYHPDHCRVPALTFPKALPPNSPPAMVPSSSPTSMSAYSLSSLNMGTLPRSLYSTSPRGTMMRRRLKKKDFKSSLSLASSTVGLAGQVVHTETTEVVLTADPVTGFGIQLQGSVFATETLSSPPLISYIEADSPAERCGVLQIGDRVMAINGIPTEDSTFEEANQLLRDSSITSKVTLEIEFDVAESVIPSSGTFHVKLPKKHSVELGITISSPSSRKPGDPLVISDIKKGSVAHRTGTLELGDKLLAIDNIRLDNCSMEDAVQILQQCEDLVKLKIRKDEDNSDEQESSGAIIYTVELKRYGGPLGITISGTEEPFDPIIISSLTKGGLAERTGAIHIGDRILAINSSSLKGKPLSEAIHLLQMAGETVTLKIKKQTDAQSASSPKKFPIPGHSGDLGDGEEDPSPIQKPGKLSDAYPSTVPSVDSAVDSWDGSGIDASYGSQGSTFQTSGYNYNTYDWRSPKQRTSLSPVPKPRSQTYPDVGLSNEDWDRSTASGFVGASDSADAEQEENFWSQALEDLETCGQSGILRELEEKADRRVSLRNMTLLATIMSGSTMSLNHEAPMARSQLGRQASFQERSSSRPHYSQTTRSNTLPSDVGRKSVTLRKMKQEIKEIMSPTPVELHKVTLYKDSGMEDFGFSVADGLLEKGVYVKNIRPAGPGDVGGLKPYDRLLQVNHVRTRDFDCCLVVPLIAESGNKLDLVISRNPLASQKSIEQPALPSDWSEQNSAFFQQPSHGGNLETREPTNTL

Chain of grip2_rat Grip2 (Q9WTW1 whole entry): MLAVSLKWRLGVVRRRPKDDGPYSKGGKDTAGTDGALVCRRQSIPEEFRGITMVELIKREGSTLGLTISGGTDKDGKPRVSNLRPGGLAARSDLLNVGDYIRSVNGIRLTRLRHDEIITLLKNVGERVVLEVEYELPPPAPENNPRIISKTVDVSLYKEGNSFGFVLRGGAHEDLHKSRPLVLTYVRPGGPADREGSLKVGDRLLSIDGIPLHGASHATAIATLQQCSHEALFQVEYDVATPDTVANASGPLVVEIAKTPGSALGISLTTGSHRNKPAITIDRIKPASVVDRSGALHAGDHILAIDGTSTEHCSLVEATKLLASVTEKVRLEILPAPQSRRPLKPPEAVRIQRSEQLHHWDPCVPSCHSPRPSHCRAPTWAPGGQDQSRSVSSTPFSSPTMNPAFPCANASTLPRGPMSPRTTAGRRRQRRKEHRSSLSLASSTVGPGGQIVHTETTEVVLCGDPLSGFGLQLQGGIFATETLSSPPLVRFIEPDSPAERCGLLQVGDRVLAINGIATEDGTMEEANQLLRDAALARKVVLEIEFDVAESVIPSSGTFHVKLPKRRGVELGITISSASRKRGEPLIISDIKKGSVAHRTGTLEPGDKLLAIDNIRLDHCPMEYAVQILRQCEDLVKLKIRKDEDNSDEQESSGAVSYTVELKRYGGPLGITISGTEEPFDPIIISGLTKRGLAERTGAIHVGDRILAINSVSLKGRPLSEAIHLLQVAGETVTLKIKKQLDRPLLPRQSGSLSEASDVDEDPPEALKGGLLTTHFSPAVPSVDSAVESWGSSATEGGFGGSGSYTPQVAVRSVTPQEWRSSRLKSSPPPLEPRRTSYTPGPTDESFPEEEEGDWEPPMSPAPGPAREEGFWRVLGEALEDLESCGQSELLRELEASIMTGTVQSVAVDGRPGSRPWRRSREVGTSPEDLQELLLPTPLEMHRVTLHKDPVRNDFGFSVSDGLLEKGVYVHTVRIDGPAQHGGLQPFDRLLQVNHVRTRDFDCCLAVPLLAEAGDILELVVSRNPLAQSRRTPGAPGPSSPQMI

Substance: Chondroitin sulfate proteoglycan 4 (Mus musculus), Q8VHY0 W2326G
- effect of a mutation on the interaction [1]: disrupting interaction
- effect of a mutation on the interaction [2]: disrupting interaction

Substance: Chondroitin sulfate proteoglycan 4 (Mus musculus), Q8VHY0 Y2325G
- effect of a mutation on the interaction [1]: disrupting interaction
- effect of a mutation on the interaction [2]: disrupting interaction

Substance: Chondroitin sulfate proteoglycan 4 (Mus musculus), Q8VHY0 V2327G
- effect of a mutation on the interaction [1]: disrupting interaction
- effect of a mutation on the interaction [2]: disrupting interaction
